The source of these data is publication PMC12199146, “Unique conformational dynamics and protein recognition of A-to-I hyper-edited dsRNA”.

Data set [1] addresses T1, Endonuclease V (EcEndoV), wild-type (Escherichia coli, UniProt P68739 1-223).
T1 sequence: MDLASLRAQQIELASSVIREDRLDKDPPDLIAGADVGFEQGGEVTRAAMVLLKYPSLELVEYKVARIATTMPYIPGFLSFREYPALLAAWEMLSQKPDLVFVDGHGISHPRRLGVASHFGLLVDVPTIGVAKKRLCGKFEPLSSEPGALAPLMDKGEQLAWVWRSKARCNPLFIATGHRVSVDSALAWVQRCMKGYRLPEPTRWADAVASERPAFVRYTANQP
The experiment in a line: EMSA; EMSA: 25 mM sodium phosphate pH 6.5, 50-300 mM NaCl (500 mM in Fig. S17E), 1 mM DTT, 5 mM MgCl2, 30 min on ice, 2 pmol RNA in 10 ul, 12% native gel in TBE at room temperature; NMR: 25 mM sodium phosphate pH 6.5, 150 mM NaCl, 5 mM MgCl2, 1 mM DTT, 5% D2O, 50 uM RNA, 288 K. Particulars: protein: recombinant; tags: N-terminal His-tag removed with TEV protease; single strand.

Data set [2] addresses T1, Endonuclease V (EcEndoV), wild-type. The experiment in a line: NMR imino line broadening; 5 mM Mg2+, 150 mM NaCl, 288 K, 1:1; backbone interaction, non-specific; EMSA: 25 mM sodium phosphate pH 6.5, 50-300 mM NaCl (500 mM in Fig. S17E), 1 mM DTT, 5 mM MgCl2, 30 min on ice, 2 pmol RNA in 10 ul, 12% native gel in TBE at room temperature; NMR: 25 mM sodium phosphate pH 6.5, 150 mM NaCl, 5 mM MgCl2, 1 mM DTT, 5% D2O, 50 uM RNA, 288 K. Particulars: protein: recombinant; tags: N-terminal His-tag removed with TEV protease; 20-mer duplex, residues 1-40. (Mobility shift assays separate free from complexed probe on a gel.)

B1: ssRNA substrate(s) without inosine (ssRNA)
RNA: CCUCGGAGUAUUUGUCCAGU
Regarding B1, in data set [1], the binding result is given as “no binding”.

B2: A-RNA (non-edited 20-mer dsRNA) (dsRNA)
RNA 1: ACUGGACAAAUACUCCGAGG
RNA 2: CCUCGGAGUAUUUGUCCAGU
As for B2, in data set [2], the binding result is given as “binds”.
